The values below are quoted from earlier work in patent publication US4636489A, “Modified protease inhibitors, process for their preparation, and pharmaceutical compositions prepared therefrom” (Plantorganwerk KG, priority 1983, dated 1987).

The test system of data set [1] is chymotrypsin.
The test system of data set [2] is subtilisin.
Data set [3] has as its system PMN-granulocyte elastase.
The test system of data set [4] is cathepsin G.
The test system of data set [5] is trypsin.
In data set [6] the test system is pancreaselastase.

B1: eglin C: protease inhibitor from leech extracts consisting of 70 amino acid radicals, described in DE-OS No. 28 08 396 (protein, UniProt P01051 1-70, looked up)
Eglin C: TEFGSELKSFPEVVGKTVDQAREYFTLHYPQYDVYFLPEGSPVTLDLRYNRVRVFYNPGTNVVNHVPHVG
Take B1: the inhibition of chymotrypsin result in data set [1] is on record as “strongly inhibit”. Moreover, the inhibition of subtilisin result in data set [2] is listed as “strongly inhibit”. The “inhibition of PMN-granulocyte elastase” value in data set [3] is listed as “strongly inhibit”. Further, in data set [4], the “inhibition of cathepsin G” value is on record as “strongly inhibit”. The inhibition of trypsin entry in data set [5] is “only poor inhibitors”. Further, the inhibition of pancreaselastase result in data set [6] is “only poor inhibitors”.
